Reference: patent US20190015484A1, “NICOTINE-DEGRADING ENZYMES FOR TREATING NICOTINE ADDICTION AND NICOTINE POISONING” (priority 2015, published 2019)

Tests used:
[1] = NicA2 stability assay in HEPES buffer at 37° C.; settings: HEPES buffer pH=7.4
Method: Four μM nicotine and 40 nM NicA2 were prepared in HEPES buffer and stored at 37° C. Upon sitting for 0, 1, 3, 4, 5, 8, 12, 16, 20, or 25 days, 100 μL of each solution was extracted, mixed, incubated, quenched, analyzed as detailed, vide supra.
To test for these metrics, NicA2 was incubated at 37° C. in HEPES buffer and enzyme activity was examined at different time points.

[2] = In vitro NicA2 activity in rat serum at physiologically relevant nicotine levels; assay type: biochemical; settings: for % Reduction in nicotine levels in vitro: rat serum, 37° C.
Method: NicA2 was diluted in rat serum (controls: serum without NicA2) to give a final concentration of 400 nM, 200 nM, and 20 nM. Nicotine was diluted in 50 mM HEPES pH 7.5 to give final amounts of 640, […], 80, 40, 20, 10, 5 and 2.5 ng (spanning a nicotine concentration range of 3.2 μg/ml to 12.5 ng/ml). The diluted NicA2 in serum and diluted nicotine were mixed 1:1 after pre-equilibration at 37° C. and 5 min (in 200 μl total). After 4 minutes or 20 minutes, reactions were diluted and quenched by addition of 800 μl H2O+500 μl 2M NaOH/0.2M NH4OH. At the highest NicA2 concentration (400 nM) initial plasma nicotine levels of 25 and 50 ng/ml dropped to <2 ng/ml at 4 min. (Table A).

[3] = NicA2 PK study in mice (ELISA of serum); assay type: in vivo, mouse
Method: Purified His-tagged NicA2 was conjugated to 20 kDa PEG and subsequently purified by HPLC. […] The fusion protein was expressed in E. coli and purified as described above for NicA2.
His-tagged NicA2, NicA2-PEG or NicA2-ABD was dosed intravenously in mice at 5 mg/kg. Blood sampling was done at pre-dose and then over a 5 min-72 h period (three animals per time-point) and processed to serum.
Assay of serum samples was done taking advantage of the C-terminal His-tag on the test articles. MaxiSorp ELISA plates (Nunc) were coated overnight with anti-His×6 antibody (purchased from R&D Systems). Plates were blocked with 4% dry milk (purchased from Bio-Rad) in PBS. Dilutions of standard and serum samples in 2% milk in PBS+0.1% Tween-20 were added to the plates, and incubated for 1 hour at room temperature. After washing away unbound substances (all wash steps performed in PBS+0.1% Tween-20), rabbit anti-NicA2 polyclonal primary detection antibody (purchased from Noble Life Sciences, Inc.) was added to the wells for a 1 hour incubation. […] Plates were washed, and the remaining binding complex was detected with TMB substrate (3,3′,5,5′-tetramethylbenzidine; KPL). Once stopped with acid, plates were read on a spectrophotometer at 450 nm and data analyzed in SoftMax® Pro, version 6.5.1 (purchased from Molecular Devices). […]

B1: NicA2: flavin-containing nicotine-degrading enzyme of Pseudomonas putida S16, amino acid sequence SEQ ID NO:1 (protein)
chain: MSDKTKTNEGFSRRSFIGSAAVVTAGVAGLGAIDAASATQKTNRASTVKGGFDYDVVVVGGGFAGATAARECGLQGYRTLLLEARSRLGGRTFTSRFAGQEIEFGGAWVHWLQPHVWAEMQRYGLGVVEDPLTNLDKTLIMYNDGSVESISPDEFGKNIRIAFEKLCHDAWEVFPRPHEPMFTERARELDKSSVLDRIKTLGLSRLQQAQINSYMALYAGETTDKFGLPGVLKLFACGGWNYDAFMDTETHYRIQGGTIGLINAMLTDSGAEVRMSVPVTAVEQVNGGVKIKTDDDEIITAGVVVMTVPLNTYKHIGFTPALSKGKQRFIKEGQLSKGAKLYVHVKQNLGRVFAFADEQQPLNWVQTHDYSDELGTILSITIARKETIDVNDRDAVTREVQKMFPGVEVLGTAAYDWTADPFSLGAWAAYGVGQLSRLKDLQAAEGRILFAGAETSNGWHANIDGAVESGLRAGREVKQLLS
modifications: His tag
stability and activity in HEPES buffer [1]: ≥ 3 weeks | v0 over the duration of the study [1]: remained virtually constant | % Reduction in nicotine levels in vitro ([2]; 20 nM NicA2, nicotine 25 ng/ml): 17% | % Reduction in nicotine levels in vitro ([2]; 20 nM NicA2, nicotine 50 ng/ml): 8% | % Reduction in nicotine levels in vitro ([2]; 20 nM NicA2, nicotine 100 ng/ml): 4% | % Reduction in nicotine levels in vitro ([2]; 200 nM NicA2, nicotine 25 ng/ml): 100% | % Reduction in nicotine levels in vitro ([2]; 200 nM NicA2, nicotine 50 ng/ml): 100% | % Reduction in nicotine levels in vitro ([2]; 200 nM NicA2, nicotine 100 ng/ml): 72% | nicotine level remaining ([2]; 400 nM NicA2, initial nicotine 25 and 50 ng/ml, at 4 min): < 2 ng/mL | % Reduction in nicotine levels in vitro ([2]; 400 nM NicA2, nicotine 25 ng/ml): 100% | % Reduction in nicotine levels in vitro ([2]; 400 nM NicA2, nicotine 50 ng/ml): 100% | % Reduction in nicotine levels in vitro ([2]; 400 nM NicA2, nicotine 100 ng/ml): 94% | half-life in vivo ([3]; in vivo in mammals, due to renal clearance): 3 to 4 h | Half-life ([3]; mice, 5 mg/kg intravenously, serum): 3.7 h
